One data set addresses T1, His6-Pal1 (Pal1-deltaN) (Saccharomyces cerevisiae, UniProt Q05518 165-499).
T1 sequence: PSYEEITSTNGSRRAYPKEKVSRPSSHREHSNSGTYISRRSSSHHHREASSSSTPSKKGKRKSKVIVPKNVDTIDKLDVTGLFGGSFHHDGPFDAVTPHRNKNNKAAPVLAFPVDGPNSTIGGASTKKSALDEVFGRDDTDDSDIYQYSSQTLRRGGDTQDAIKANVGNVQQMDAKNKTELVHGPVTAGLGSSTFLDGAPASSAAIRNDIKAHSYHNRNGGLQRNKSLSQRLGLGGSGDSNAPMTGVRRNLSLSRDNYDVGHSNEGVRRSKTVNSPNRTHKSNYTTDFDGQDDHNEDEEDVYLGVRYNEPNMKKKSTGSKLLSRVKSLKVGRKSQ
Nature of the data set: EMSA. (In general: Mobility shift assays separate free from complexed probe on a gel.)

The target of data set [1] is T2, His6-Pal2 (Pal2-deltaN65) (Saccharomyces cerevisiae, UniProt P38809 65-366).
T2 sequence: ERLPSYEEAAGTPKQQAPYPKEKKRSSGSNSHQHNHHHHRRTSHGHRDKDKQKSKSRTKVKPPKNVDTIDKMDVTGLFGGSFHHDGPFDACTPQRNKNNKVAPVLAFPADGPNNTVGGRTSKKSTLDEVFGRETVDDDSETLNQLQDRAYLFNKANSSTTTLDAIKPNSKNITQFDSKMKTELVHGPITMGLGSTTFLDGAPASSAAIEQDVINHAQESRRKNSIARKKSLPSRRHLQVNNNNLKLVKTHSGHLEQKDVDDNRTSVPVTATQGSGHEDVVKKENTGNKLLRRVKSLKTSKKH
Nature of the data set: EMSA.

The next data set has as its target His6-Ypt1 (UniProt P01123 1-206). Nature of the data set: EMSA.
Data set [2] has as its target T2, His6-Pal2 (Pal2-deltaN65). Nature of the data set: competition.

His6-Ypt1, sequence (P01123 whole entry): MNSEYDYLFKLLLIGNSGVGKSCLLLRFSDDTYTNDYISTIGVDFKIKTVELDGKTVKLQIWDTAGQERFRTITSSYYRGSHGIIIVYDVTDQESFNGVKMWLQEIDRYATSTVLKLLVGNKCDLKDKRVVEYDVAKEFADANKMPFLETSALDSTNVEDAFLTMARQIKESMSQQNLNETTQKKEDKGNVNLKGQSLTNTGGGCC

B1: Flc-3'-BE (HAC1 3'-UTR bipartite element) (structured_RNA)
RNA: CGUGAGGUUGGCGCGCCCUCCUACAAUUAUUUGUGGCGACUGGGCAGCGACACUGAACA
As for B1, the binding result in the data set with His6-Pal1 (Pal1-deltaN) is “binds”; in data set [1] it was “binds”; in the data set with His6-Ypt1 it was “no binding”.

B2: unlabeled 3'-BE transcript (structured_RNA)
RNA: GGGCGUGAGGUUGGCGCGCCCUCCUACAAUUAUUUGUGGCGACUGGGCAGCGACACUGAACA
Consider B2, for which, in data set [2], the binding result is reported as “binds”.
